Data reported in US20220048967A1 (published 2022).
Positions count from the first letter of the chain named. Numbered stars: 1 amine (or outer) side, 2 acyl side, 3 side chain; on linkers, the order of the positions; unused ones are H or OH. Square brackets hold non-standard residues; d marks the D form. Side chains are listed from the residue outwards. Ends that are not written are not given here. * marks the point of attachment. C20 diacid = O=C(O)CCCCCCCCCCCCCCCCCCC(=O)*; αMePhe(2-F) = C[C@](N)(Cc1ccccc1F)C(=O)O; γGlu = O=C(O)[C@H](CCC(=O)[*:2])N[*:1]; αMeF = C[C@](N)(Cc1ccccc1)C(=O)O; AEEA = NCCOCCOCC(=O)O; Aib = CC(C)(N)C(=O)O

T1: human gastric inhibitory peptide receptor (GIPR) (human, UniProt P48546 22-466)
T1 sequence (looked up): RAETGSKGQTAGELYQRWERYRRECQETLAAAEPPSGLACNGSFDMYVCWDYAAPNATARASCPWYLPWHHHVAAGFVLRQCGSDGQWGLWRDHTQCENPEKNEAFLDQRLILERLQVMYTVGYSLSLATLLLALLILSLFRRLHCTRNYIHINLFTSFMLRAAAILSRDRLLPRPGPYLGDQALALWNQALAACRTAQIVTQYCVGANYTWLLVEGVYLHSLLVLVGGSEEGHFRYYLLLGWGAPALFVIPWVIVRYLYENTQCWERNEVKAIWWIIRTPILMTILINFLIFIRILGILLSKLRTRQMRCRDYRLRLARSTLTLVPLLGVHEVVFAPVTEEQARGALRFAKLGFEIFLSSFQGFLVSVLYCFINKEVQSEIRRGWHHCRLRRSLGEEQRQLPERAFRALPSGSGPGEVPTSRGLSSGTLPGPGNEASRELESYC

B1: Example 154 (peptide)
peptide: Y[Aib]EGT[αMePhe(2-F)]TSDHSIXLDEKAQ[Aib]EFIEYLIEGGPSSGAPPPS-NH2
modifications: not fully specified (residues 13, 17); printed as Y-Aib-EGT-αMeF(2F)-TSDHSI-αMeF-LDEK((2-[2-(2-Amino-ethoxy)-ethoxy]-acetyl)2-(γ-Glu)-CO-(CH2)18-CO2H)AQ-Aib-EFIEYLIEGGPSSGAPPPS-NH2
B2: Example 162 (peptide)
peptide: Y[Aib]EGT[αMePhe(2-F)]TSDHSI[αMeF]LDEK([AEEA-AEEA-γGlu-γGlu-C20 diacid])AQ[Aib]TFI[dE]HLIEGGPSSG-NH2
modifications: N-terminus assumed
SMILES: CC[C@H](C)[C@H](NC(=O)[C@H](CC(C)C)NC(=O)[C@H](Cc1c[nH]cn1)NC(=O)[C@@H](CCC(=O)O)NC(=O)[C@@H](NC(=O)[C@H](Cc1ccccc1)NC(=O)[C@@H](NC(=O)C(C)(C)NC(=O)[C@H](CCC(N)=O)NC(=O)[C@H](C)NC(=O)[C@H](CCCCNC(=O)COCCOCCNC(=O)COCCOCCNC(=O)CC[C@H](NC(=O)CC[C@H](NC(=O)CCCCCCCCCCCCCCCCCCC(=O)O)C(=O)O)C(=O)O)NC(=O)[C@H](CCC(=O)O)NC(=O)[C@H](CC(=O)O)NC(=O)[C@H](CC(C)C)NC(=O)[C@](C)(Cc1ccccc1)NC(=O)[C@@H](NC(=O)[C@H](CO)NC(=O)[C@H](Cc1c[nH]cn1)NC(=O)[C@H](CC(=O)O)NC(=O)[C@H](CO)NC(=O)[C@@H](NC(=O)[C@](C)(Cc1ccccc1F)NC(=O)[C@@H](NC(=O)CNC(=O)[C@H](CCC(=O)O)NC(=O)C(C)(C)NC(=O)[C@@H](N)Cc1ccc(O)cc1)[C@@H](C)O)[C@@H](C)O)[C@@H](C)CC)[C@@H](C)O)[C@@H](C)CC)C(=O)N[C@@H](CCC(=O)O)C(=O)NCC(=O)NCC(=O)N1CCC[C@H]1C(=O)N[C@@H](CO)C(=O)N[C@@H](CO)C(=O)NCC(N)=O
B3: Example 160 (peptide)
peptide: YXEGTXTSDXSIXLDEKAQXTFIXYLIEGGPSSGAPPPS
modifications: Y-Aib-EGT-αMeF(2F)-TSD-Aib-SI-αMeF-LDEK((2-[2-(2-Amino-ethoxy)-ethoxy]-acetyl)2-(γ-Glu)-CO-(CH2)18-CO2H)AQ-Aib-TFI-(D-Glu)-YLIEGGPSSGAPPPS-NH2
B4: Example 164 (peptide)
peptide: B3 peptide with X10H, E28X
modifications: Y-Aib-EGT-αMeF(2F)-TSDHSI-αMeF-LDEK((2-[2-(2-Amino-ethoxy)-ethoxy]-acetyl)2-(γ-Glu)-CO-(CH2)18-CO2H)AQ-Aib-TFI-(D-Glu)-YLI-(D-Glu)-GGPSSGAPPPS-NH2
B5: Example 153 (peptide)
peptide: Y[Aib]EGT[αMePhe(2-F)]TSDYSIXLDEKAQ[Aib]EFIHYLIEGGPSSGAPPPS-NH2
modifications: not fully specified (residues 13, 17); printed as Y-Aib-EGT-αMeF(2F)-TSDYSI-αMeF-LDEK((2-[2-(2-Amino-ethoxy)-ethoxy]-acetyl)2-(γ-Glu)-CO-(CH2)18-CO2H)AQ-Aib-EFIHYLIEGGPSSGAPPPS-NH2
B6: Example 163 (peptide)
peptide: H[Aib]EGT[αMePhe(2-F)]TSDYSI[αMeF]LDEK([AEEA-AEEA-γGlu-C20 diacid])AQ[Aib]EFIEYLIEGGPSSGAPPPS-NH2
modifications: N-terminus assumed
SMILES: CC[C@H](C)[C@H](NC(=O)[C@H](CC(C)C)NC(=O)[C@H](Cc1ccc(O)cc1)NC(=O)[C@H](CCC(=O)O)NC(=O)[C@@H](NC(=O)[C@H](Cc1ccccc1)NC(=O)[C@H](CCC(=O)O)NC(=O)C(C)(C)NC(=O)[C@H](CCC(N)=O)NC(=O)[C@H](C)NC(=O)[C@H](CCCCNC(=O)COCCOCCNC(=O)COCCOCCNC(=O)CC[C@H](NC(=O)CCCCCCCCCCCCCCCCCCC(=O)O)C(=O)O)NC(=O)[C@H](CCC(=O)O)NC(=O)[C@H](CC(=O)O)NC(=O)[C@H](CC(C)C)NC(=O)[C@](C)(Cc1ccccc1)NC(=O)[C@@H](NC(=O)[C@H](CO)NC(=O)[C@H](Cc1ccc(O)cc1)NC(=O)[C@H](CC(=O)O)NC(=O)[C@H](CO)NC(=O)[C@@H](NC(=O)[C@](C)(Cc1ccccc1F)NC(=O)[C@@H](NC(=O)CNC(=O)[C@H](CCC(=O)O)NC(=O)C(C)(C)NC(=O)[C@@H](N)Cc1c[nH]cn1)[C@@H](C)O)[C@@H](C)O)[C@@H](C)CC)[C@@H](C)CC)C(=O)N[C@@H](CCC(=O)O)C(=O)NCC(=O)NCC(=O)N1CCC[C@H]1C(=O)N[C@@H](CO)C(=O)N[C@@H](CO)C(=O)NCC(=O)N[C@@H](C)C(=O)N1CCC[C@H]1C(=O)N1CCC[C@H]1C(=O)N1CCC[C@H]1C(=O)N[C@@H](CO)C(N)=O
B7: Example 161 (peptide)
peptide: Y[Aib]EGT[αMePhe(2-F)]TSDHSI[αMeF]LDEK([AEEA-AEEA-γGlu-γGlu-C20 diacid])AQ[Aib]TFI[dE]YLIEGGPSSG-NH2
modifications: N-terminus assumed
SMILES: CC[C@H](C)[C@H](NC(=O)[C@H](CC(C)C)NC(=O)[C@H](Cc1ccc(O)cc1)NC(=O)[C@@H](CCC(=O)O)NC(=O)[C@@H](NC(=O)[C@H](Cc1ccccc1)NC(=O)[C@@H](NC(=O)C(C)(C)NC(=O)[C@H](CCC(N)=O)NC(=O)[C@H](C)NC(=O)[C@H](CCCCNC(=O)COCCOCCNC(=O)COCCOCCNC(=O)CC[C@H](NC(=O)CC[C@H](NC(=O)CCCCCCCCCCCCCCCCCCC(=O)O)C(=O)O)C(=O)O)NC(=O)[C@H](CCC(=O)O)NC(=O)[C@H](CC(=O)O)NC(=O)[C@H](CC(C)C)NC(=O)[C@](C)(Cc1ccccc1)NC(=O)[C@@H](NC(=O)[C@H](CO)NC(=O)[C@H](Cc1c[nH]cn1)NC(=O)[C@H](CC(=O)O)NC(=O)[C@H](CO)NC(=O)[C@@H](NC(=O)[C@](C)(Cc1ccccc1F)NC(=O)[C@@H](NC(=O)CNC(=O)[C@H](CCC(=O)O)NC(=O)C(C)(C)NC(=O)[C@@H](N)Cc1ccc(O)cc1)[C@@H](C)O)[C@@H](C)O)[C@@H](C)CC)[C@@H](C)O)[C@@H](C)CC)C(=O)N[C@@H](CCC(=O)O)C(=O)NCC(=O)NCC(=O)N1CCC[C@H]1C(=O)N[C@@H](CO)C(=O)N[C@@H](CO)C(=O)NCC(N)=O
B8: Example 159 (peptide)
peptide: Y[Aib]EGT[αMePhe(2-F)]TSD[αMeF]SIXLDEKAQ[Aib]EFIEYLIEGGPSSGAPPPS-NH2
modifications: not fully specified (residues 13, 17); printed as Y-Aib-EGT-αMeF(2F)-TSD-αMeF-SI-αMeF-LDEK((2-[2-(2-Amino-ethoxy)-ethoxy]-acetyl)2-(γ-Glu)-CO-(CH2)18-CO2H)AQ-Aib-EFIEYLIEGGPSSGAPPPS-NH2

Molecular target: T1, human gastric inhibitory peptide …
Assay: cell-based or functional assay

Row | Binder | hGIPR cAMP EC50 ratio | hGIPR cAMP Rel EC50
1 | B1 | 5.9 | 0.0266 nM
2 | B2 | 0.0393 | 4.56 nM
3 | B3 | 0.00712 | 21 nM
4 | B4 | 0.0581 | 3.09 nM
5 | B5 | 1.7 | 0.0634 nM
6 | B6 | 1.29 | 0.121 nM
7 | B7 | 0.706 | 0.254 nM
8 | B8 | 0.039 | 4.6 nM

Molecular target: human GLP-1 receptor (GLP-1R) (human, UniProt P43220 24-463)
Assay: cell-based or functional assay

Row | Binder | hGLP1R cAMP EC50 ratio | hGLP1R cAMP Rel EC50
9 | B1 | 1.23 | 0.0393 nM
10 | B2 | 0.00161 | 36 nM
11 | B3 | 1.24 | 0.0461 nM
12 | B4 | 0.00373 | 15.6 nM
13 | B5 | 0.501 | 0.0904 nM
14 | B6 | 1.54 | 0.0316 nM
15 | B7 | 0.0121 | 4.8 nM
16 | B8 | 0.176 | 0.33 nM
